Consider 15 molecules from patent publication US20060122119A1 (INSTITUT NAT L DE LA SANTE ET DE LA RECHERCHE MED, published 2006).

Bounds are passed on as bounds.

Assay [1] concerns the target HLA-B*3501 (human).
Assay [2] deals with HLA-B*3501 (human). The source holds these as a separate data set.
Assay [3] has as its target HLA-B*3501 (human). The source holds these as a separate data set.

B1: NY-ESO-1 peptide 94-104 MPFATPMEAEL (peptide)
peptide: MPFATPMEAEL
notes: synthetic peptide; also called 11-mer 94-104
With B1, in assay [1], the “Stability (half-life of the peptide on HLA-B*35)” value (“Stability” below) was greater than 6 h. In addition, in assay [2], the “RA (relative affinity)” value amounted to 1.32.

B2: tyrosinase peptide 309-322 TPRLPSSADVEFCL (peptide)
peptide: TPRLPSSADVEFCL
notes: synthetic peptide; also called 14-mer 309-322
For the molecule B2, the “Stability” value in assay [1] is greater than 6 h. Moreover, the “RA (relative affinity)” value in assay [2] was greater than 20.

B3: NY-ESO-1 peptide 94-102 MPFATPMEA (peptide)
peptide: MPFATPMEA
notes: synthetic peptide; also called nonamer 94-102
Turning to B3, the “Stability” value in assay [1] was greater than 6 h. Further, the “RA (relative affinity)” value in assay [2] came to 0.4.

Take LPSSADVEF (synthetic peptide) [tyrosinase peptide 312-320 LPSSADVEF]: the “Stability” value in assay [1] came out at 6 h. Besides, the “RA (relative affinity)” value in assay [2] was 1.25.

B4: NY-ESO-1 peptide 92-103 LAMPFATPMEAE (peptide)
peptide: LAMPFATPMEAE
notes: synthetic peptide; also called 12-mer 92-103
As for B4, the “Stability” value in assay [1] is greater than 6 h.

As for EAAGIGILY (synthetic modified peptide) [modified Melan-A peptide 26-34 EAAGIGILY], in assay [1], the “Stability” value is greater than 6 h. In addition, in assay [2], the “RA (relative affinity)” value stood at 1.32.

For EPAGIGILY (synthetic modified peptide) [modified Melan-A peptide 26-34 EPAGIGILY], the “Stability” value in assay [1] was greater than 6 h. In addition, the “RA (relative affinity)” value in assay [2] was 0.4.

B5: NY-ESO-1 peptide 94-103 MPFATPMEAE (peptide)
peptide: MPFATPMEAE
notes: synthetic peptide; also called decamer 94-103
For B5, in assay [1], the “Stability” value was greater than 6 h.

B6: tyrosinase peptide 309-320 TPRLPSSADVEF (peptide)
peptide: TPRLPSSADVEF
notes: synthetic peptide; also called 12-mer 309-320
As to B6, in assay [1], the “Stability” value was greater than 6 h. The “RA (relative affinity)” value in assay [2] was 1.3.

Regarding QVPLDCVLYR (synthetic peptide, 70% purity) [gp100 peptide 470-479 QVPLDCVLYR], the binding result in assay [3] is reported as “no binding”.

On to VPLDCVLYRY (synthetic peptide) [gp100 peptide 471-480 VPLDCVLYRY], for which the “Stability” value in assay [1] was greater than 6 h. Further, in assay [2], the “RA (relative affinity)” value worked out at 2.6.

For VPLDCVLYR (synthetic peptide) [gp100 peptide 471-479 VPLDCVLYR], the “Stability” value in assay [1] is less than 0.5 h. In assay [2], the “RA (relative affinity)” value turned out to be 20.

B7: NY-ESO-1 peptide 92-104 LAMPFATPMEAEL (peptide)
peptide: LAMPFATPMEAEL
notes: synthetic peptide; also called 13-mer 92-104
For the molecule B7, the “Stability” value in assay [1] was greater than 6 h. In addition, the “RA (relative affinity)” value in assay [2] came to 0.58.

B8: tyrosinase peptide 309-321 TPRLPSSADVEFC (peptide)
peptide: TPRLPSSADVEFC
notes: synthetic peptide; also called 13-mer 309-321
Take B8: the “Stability” value in assay [1] was less than 0.5 h. Besides, the “RA (relative affinity)” value in assay [2] was determined as 16.7.

As to EVDPIGHVY (synthetic peptide) [MAGE-A6 peptide 168-176 EVDPIGHVY], in assay [1], the “Stability” value amounted to 6 h. The “RA (relative affinity)” value in assay [2] stood at 1.1.
